Test results as given in paper PMC10491584, “Structural convergence endows nuclear transport receptor Kap114p with a transcriptional repressor function toward TATA-binding protein” (Nature Communications, 2023).

T1: Kap114p wild type (S. cerevisiae, UniProt P53067 1-1004)
T1 construct: Kap114p (karyopherin-β), S. cerevisiae, full length, amplified from total genomic DNA; GST tag followed by a PreScission site (modified pGEX6p1); PreScission protease added during dialysis; also called Kap114p WT; GST-Kap114p (plasmid pGEX-6P-1-Kap114); source: E. coli Rosetta, purified (GST resin, MonoQ, Superdex 200)
T1 sequence (looked up): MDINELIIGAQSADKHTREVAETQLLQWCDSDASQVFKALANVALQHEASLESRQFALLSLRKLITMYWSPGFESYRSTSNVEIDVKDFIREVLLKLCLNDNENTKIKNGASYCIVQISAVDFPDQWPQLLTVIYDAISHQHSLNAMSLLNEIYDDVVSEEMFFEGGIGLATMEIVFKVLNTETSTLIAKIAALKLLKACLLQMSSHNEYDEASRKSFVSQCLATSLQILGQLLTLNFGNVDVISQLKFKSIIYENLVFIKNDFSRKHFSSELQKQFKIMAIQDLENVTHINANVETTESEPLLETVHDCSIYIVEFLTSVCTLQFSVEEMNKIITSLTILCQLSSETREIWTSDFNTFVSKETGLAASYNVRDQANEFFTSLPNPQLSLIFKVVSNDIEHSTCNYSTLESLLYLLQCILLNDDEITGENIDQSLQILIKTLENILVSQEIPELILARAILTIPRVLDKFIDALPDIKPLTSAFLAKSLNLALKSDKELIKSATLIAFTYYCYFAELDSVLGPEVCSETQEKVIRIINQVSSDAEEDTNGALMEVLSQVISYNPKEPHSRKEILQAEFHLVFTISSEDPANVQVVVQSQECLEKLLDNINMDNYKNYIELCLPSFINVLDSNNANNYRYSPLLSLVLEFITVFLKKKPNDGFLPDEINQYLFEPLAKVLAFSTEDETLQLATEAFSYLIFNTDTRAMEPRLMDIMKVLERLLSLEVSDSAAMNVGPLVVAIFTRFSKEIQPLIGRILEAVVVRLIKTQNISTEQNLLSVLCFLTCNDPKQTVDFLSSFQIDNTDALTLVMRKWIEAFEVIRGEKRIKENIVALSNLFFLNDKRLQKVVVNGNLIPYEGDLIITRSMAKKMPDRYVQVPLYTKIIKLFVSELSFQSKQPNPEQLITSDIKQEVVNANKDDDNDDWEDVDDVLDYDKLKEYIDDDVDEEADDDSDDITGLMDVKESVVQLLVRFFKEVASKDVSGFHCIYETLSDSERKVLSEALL

T2: Kap114p (Q597A) (S. cerevisiae, UniProt P53067 1-1004, Q597A)
T2 construct: Kap114p, S. cerevisiae, full length with Q597A; also called GST-Kap114p (Q597); source: E. coli Rosetta, purified (GST resin, MonoQ, Superdex 200)
T2 sequence (looked up): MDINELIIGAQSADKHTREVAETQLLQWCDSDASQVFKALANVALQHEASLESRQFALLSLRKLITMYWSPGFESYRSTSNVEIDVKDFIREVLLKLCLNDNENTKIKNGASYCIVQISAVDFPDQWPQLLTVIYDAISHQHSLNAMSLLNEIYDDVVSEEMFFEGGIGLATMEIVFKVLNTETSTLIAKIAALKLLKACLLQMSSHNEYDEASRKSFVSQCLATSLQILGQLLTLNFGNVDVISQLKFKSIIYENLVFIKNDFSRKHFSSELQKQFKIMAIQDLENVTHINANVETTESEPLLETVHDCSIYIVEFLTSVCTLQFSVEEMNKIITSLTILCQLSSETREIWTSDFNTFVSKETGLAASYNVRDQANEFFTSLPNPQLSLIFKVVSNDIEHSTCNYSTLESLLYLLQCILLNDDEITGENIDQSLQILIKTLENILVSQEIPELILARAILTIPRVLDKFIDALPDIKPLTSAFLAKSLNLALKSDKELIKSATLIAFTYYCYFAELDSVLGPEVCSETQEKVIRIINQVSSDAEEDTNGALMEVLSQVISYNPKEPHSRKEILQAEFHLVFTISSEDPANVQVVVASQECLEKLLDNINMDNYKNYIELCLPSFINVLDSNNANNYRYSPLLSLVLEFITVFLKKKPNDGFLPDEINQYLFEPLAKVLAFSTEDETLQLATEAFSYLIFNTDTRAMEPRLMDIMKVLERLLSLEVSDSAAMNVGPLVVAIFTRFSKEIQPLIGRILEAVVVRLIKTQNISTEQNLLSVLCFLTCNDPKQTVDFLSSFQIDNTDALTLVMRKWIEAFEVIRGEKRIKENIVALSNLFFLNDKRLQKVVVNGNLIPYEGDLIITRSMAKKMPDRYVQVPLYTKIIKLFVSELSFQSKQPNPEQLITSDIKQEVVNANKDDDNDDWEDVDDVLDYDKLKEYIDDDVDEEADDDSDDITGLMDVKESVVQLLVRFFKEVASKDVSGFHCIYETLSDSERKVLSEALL


Key:
Details in all cases: both partners purified
Kap114p wild type = molecular target: T1, Kap114p wild type; experiment: ITC; MicroCal iTC200, 25 °C, 20 mM HEPES pH 7.4, 150 mM NaCl; high concentration: 50 µM wild type or mutant Kap114p in the sample cell, 500 µM wild type or mutant yTBPC in the syringe; triplicate
Kap114p (Q597A) [1] = molecular target: T2, Kap114p (Q597A); experiment: as above
Kap114p (Q597A) [2] = molecular target: T2, Kap114p (Q597A); experiment: ITC; MicroCal iTC200, 25 °C, 20 mM HEPES pH 7.4, 150 mM NaCl; low concentration: 25 µM wild type or mutant Kap114p in the sample cell, 250 µM wild type or mutant yTBPC in the syringe; triplicate

Kd (Kap114p wild type) | Kd (Kap114p (Q597A) [1]) | Kd (Kap114p (Q597A) [2]) | Binder
0.238 µM |  |  | yTBP^C (K145A) (domain or fragment, S. cerevisiae, UniProt P13393 61-240, looked up, also called yTBP(K145A); pET28a-Spt15 (61-240) (K145A); source: E. coli Rosetta, purified (Ni-NTA, HiTrap SP, Superdex 75); not shown: His6, N-terminal, cleaved) SGIVPTLQNIVATVTLGCRLDLKTVALHARNAEYNPKRFAAVIMRIREPKTTALIFASGKMVVTGAKSEDDSKLASRKYARIIQAIGFAAKFTDFKIQNIVGSCDVKFPIRLEGLAFSHGTFSSYEPELFPGLIYRMVKPKIVLLIFVSGKIVLTGAKQREEIYQAFEAIYPVLSEFRKM
0.255 µM | 0.316 µM | 0.165 µM | yTBP^C (R141A) (domain or fragment, S. cerevisiae, UniProt P13393 61-240, looked up, also called yTBP(R141A); His-yTBP (61-240) (R141A); source: E. coli Rosetta, purified (Ni-NTA, HiTrap SP, Superdex 75); not shown: His6, N-terminal, cleaved) SGIVPTLQNIVATVTLGCRLDLKTVALHARNAEYNPKRFAAVIMRIREPKTTALIFASGKMVVTGAKSEDDSKLASRKYAAIIQKIGFAAKFTDFKIQNIVGSCDVKFPIRLEGLAFSHGTFSSYEPELFPGLIYRMVKPKIVLLIFVSGKIVLTGAKQREEIYQAFEAIYPVLSEFRKM
